Legend:
[1] = target: full-length Arabidopsis thaliana NAP1-Related Protein 1 (AtNRP1-His) (Arabidopsis thaliana) (UniProt Q9CA59); assay: native gel or EMSA; native polyacrylamide gel; increasing amounts of H2A-H2B dimer titrated into a constant amount (5 µM) of AtNRP1/2 proteins
[2] = target: full-length Arabidopsis thaliana NAP1-Related Protein 2 (AtNRP2-His) (Arabidopsis thaliana) (UniProt Q8LC68); assay: as above
[3] = target: full-length Arabidopsis thaliana NAP1-Related Protein 1 (AtNRP1-His) (Arabidopsis thaliana) (UniProt Q9CA59); assay: ITC; H2A-H2B (200-210 µM) in the syringe, AtNRP1/AtNRP2 (20 µM) in the cell; 25 °C; 20 mM PIPES pH 7.4, 300 mM NaCl; sequential binding site model
[4] = target: full-length Arabidopsis thaliana NAP1-Related Protein 2 (AtNRP2-His) (Arabidopsis thaliana) (UniProt Q8LC68); assay: as above

Arabidopsis thaliana histone H2A-H2B dimer, sequence (Q9LD28 whole entry): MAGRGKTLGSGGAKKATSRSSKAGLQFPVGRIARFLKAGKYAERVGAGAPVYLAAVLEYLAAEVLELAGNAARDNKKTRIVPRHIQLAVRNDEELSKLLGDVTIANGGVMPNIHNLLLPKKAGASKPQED
Arabidopsis thaliana histone H2A-H2B dimer, sequence (Q9LQQ4 whole entry): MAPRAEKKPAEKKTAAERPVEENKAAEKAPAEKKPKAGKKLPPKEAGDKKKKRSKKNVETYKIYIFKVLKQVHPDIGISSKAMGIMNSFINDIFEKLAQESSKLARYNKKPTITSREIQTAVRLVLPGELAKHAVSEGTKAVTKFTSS
full-length Arabidopsis thaliana NAP1-Related Protein 2 (AtNRP2-His) (Arabidopsis thaliana), sequence (Q8LC68 other isoform, or with tags, fused parts or gaps): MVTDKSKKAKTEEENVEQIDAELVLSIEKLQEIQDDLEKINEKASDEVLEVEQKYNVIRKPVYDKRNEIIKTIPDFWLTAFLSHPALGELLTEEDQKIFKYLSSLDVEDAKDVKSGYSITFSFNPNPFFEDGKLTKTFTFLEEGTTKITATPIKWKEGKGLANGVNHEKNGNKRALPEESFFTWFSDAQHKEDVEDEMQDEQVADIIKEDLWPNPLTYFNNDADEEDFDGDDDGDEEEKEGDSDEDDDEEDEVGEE
full-length Arabidopsis thaliana NAP1-Related Protein 1 (AtNRP1-His) (Arabidopsis thaliana), sequence (Q9CA59 whole entry): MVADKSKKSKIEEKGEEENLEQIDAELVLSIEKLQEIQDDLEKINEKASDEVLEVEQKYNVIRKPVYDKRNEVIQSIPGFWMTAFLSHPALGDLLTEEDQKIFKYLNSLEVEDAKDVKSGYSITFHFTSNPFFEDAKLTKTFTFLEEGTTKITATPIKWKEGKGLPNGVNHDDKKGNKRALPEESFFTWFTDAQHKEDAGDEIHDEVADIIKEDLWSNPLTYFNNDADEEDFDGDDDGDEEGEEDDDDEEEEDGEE

For “Arabidopsis thaliana histone H2A-H2B dimer (from UniProt Q9LD28 1-130; Q9LQQ4 1-148) (complex)”, the stoichiometry N (H2A-H2B dimers per NRP dimer) [1] was 2, the stoichiometry N (H2A-H2B dimers per NRP dimer) [2] was 2 and the Kd1 (sequential binding model, first site) [3] was 130 nM. The Kd2 (sequential binding model, second site) [3] was 2.4 µM, the dH1 (sequential binding model, first site) [3] was 8.51 kcal/mol and the dH2 (sequential binding model, second site) [3] was 6 kcal/mol. For the same substance, the Kd1 (sequential binding model, first site) [4] was 39.6 nM, the Kd2 (sequential binding model, second site) [4] was 1 µM and the dH1 (sequential binding model, first site) [4] was 7.28 kcal/mol. For the same substance, the dH2 (sequential binding model, second site) [4] was 1.33 kcal/mol.

— article PMC6630525
